Assays:
[1] = target: UL37N, the N-terminal half (residues 1 to 496) of pseudorabies virus (PRV) UL37 (pseudorabies virus (PRV)); assay: crystal structure, interface analysis calculated without the calcium ions
[2] = target: UL37N, the N-terminal half (residues 1 to 496) of pseudorabies virus (PRV) UL37 (pseudorabies virus (PRV)); assay: crystal structure, interface analysis (PISA), calcium present

Work on “UL37N, the N-terminal half (residues 1 to 496) of pseudorabies virus (PRV) UL37” yielded a buried surface area [1] of 1500 Å2 and a buried surface area [2] of 1730 Å2.
